According to paper doi:10.1101/2024.10.14.618187, “Molecular basis of interchain disulfide-bond formation in BMP-9 and BMP-10” (bioRxiv, 2024):

B1: Pro-(X)-BMP-9 [human] / itself (parent)
chain: KPLQSWGRGSAGGNAHSPLGVPGGGLPEHTFNLKMFLENVKVDFLRSLNLSGVPSQDKTRVEPPQYMIDLYNRYTSDKSTTPASNIVRSFSMEDAISITATEDFPFQKHILLFNISIPRHEQITRAELRLYVSCQNHVDPSHDLKGSVVIYDVLDGTDAWDSATETKTFLVSQDIQDEGWETLEVSSAVKRWVRSDSTKSKNKLEVTVESHRKGCDTLDISVPPGSRNLPFFVVFSNDHSSGTKETRLELREMISHEQESVLKKLSKDGSTEAGESSHEEDTDGHVAAGSTLAIEGRSSGAGSHCQKTSLRVNFEDIGWDSWIIAPKEYEAYECKGGCFFPLADDVTPTKHAIVQTLVHLKFPTKVGKACCVPTKLSPISVLYKDDMGVPTLKYHYEGMSVAECGCR

Variants of: B1
Assay: SDS-PAGE densitometry after IMAC purification
Conditions: with itself

Which screen value does the source give for KPLQSWGRGSAGGNAHSPLGVPGGGLPEHTFNLKMFLENVKVDFLRSLNLSGVPSQDKTRVEPPQYMIDLYNRYTSDKSTTPASNIVRSFSMEDAISITATEDFPFQKHILLFNISIPRHEQITRAELRLYVSCQNHVDPSHDLKGSVVIYDVLDGTDAWDSATETKTFLVSQDIQDEGWETLEVSSAVKRWVRSDSTKSKNKLEVTVESHRKGCDTLDISVPPGSRNLPFFVVFSNDHSSGTKETRLELREMISHEQESVLKKLSKDGSTEAGESSHEEDTDGHVAAGSTLAIEGRSSGAGSHCQKTSLRVNFEDIGWDSWIIAPKEYEAYECKGGCFFPLADDVTPTKHAIVQTLVHLKFPTKVSKACCVPTKLSPISVLYKDDMGVPTLKYHYEGMSVAECGCR [chain 1 G367S] here?
Its screen value is 1.29.

Which screen value does the source give for KPLQSWGRGSAGGNAHSPLGVPGGGLPEHTFNLKMFLENVKVDFLRSLNLSGVPSQDKTRVEPPQYMIDLYNRYTSDKSTTPASNIVRSFSMEDAISITATEDFPFQKHILLFNISIPRHEQITRAELRLYVSCQNHVDPSHDLKGSVVIYDVLDGTDAWDSATETKTFLVSQDIQDEGWETLEVSSAVKRWVRSDSTKSKNKLEVTVESHRKGCDTLDISVPPGSRNLPFFVVFSNDHSSGTKETRLELREMISHEQESVLKKLSKDGSTEAGESSHEEDTDGHVAAGSTLAIEGRSSGAGSHCQKTSLRVNFEDIGWDSWIIAPKEYEAYECRGGCFFPLADDVTPTKHAIVQTLVHLKFPTKVGKACCVPTKLSPISVLYKDDMGVPTLKYHYEGMSVAECGCR [chain 1 K335R] here?
The screen value was 0.7.

How did the screen value turn out when KPLQSWGRGSAGGNAHSPLGVPGGGLPEHTFNLKMFLENVKVDFLRSLNLSGVPSQDKTRVEPPQYMIDLYNRYTSDKSTTPASNIVRSFSMEDAISITATEDFPFQKHILLFNISIPRHEQITRAELRLYVSCQNHVDPSHDLKGSVVIYDVLDGTDAWDSATETKTFLVSQDIQDEGWETLEVSSAVKRWVRSDSTKSKNKLEVTVESHRKGCDTLDISVPPGSRNLPFFVVFSNDHSSGTKETRLELREMISHEQESVLKKLSKDGSTEAGESSHEEDTDGHVAAGSTLAIEGRSSGAGSHCQKTSLRVNFEDIGWDSWIIAPKEYEAYECRGGCFFPLADDVTPTKHAIVQTLVHLKFPTKVSKACCVPTKLSPISVLYKDDMGVPTLKYHYEGMSVAECGCR [chain 1 K335R G367S] was run?
Its screen value is 3.24.
